Experimental data reported in the supplement of paper PMC9876800.

Test system: peptide library, one residue held at a place counted from the S/T acceptor
Experiment: relative phosphorylation of the sub-library (ratio to the mean residue at this position); Pediculus humanus corporis; higher = residue favoured
How it was run: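 Relative sub-library phosphorylation is the ratio of each sub-library's signal to the mean residue at that position. The signal came from phosphorimaging of spots on streptavidin membranes, quantified by densitometry, after purified recombinant kinases reacted with biotinylated degenerate peptide sub-libraries in 384-well plates. Reactions held 50 μM peptide and 50 μM ATP spiked with γ-32P-ATP for 90 min under kinase-specific conditions.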

Chain of PINK1, construct: aa126-end (E0W1I1 126-575, looked up): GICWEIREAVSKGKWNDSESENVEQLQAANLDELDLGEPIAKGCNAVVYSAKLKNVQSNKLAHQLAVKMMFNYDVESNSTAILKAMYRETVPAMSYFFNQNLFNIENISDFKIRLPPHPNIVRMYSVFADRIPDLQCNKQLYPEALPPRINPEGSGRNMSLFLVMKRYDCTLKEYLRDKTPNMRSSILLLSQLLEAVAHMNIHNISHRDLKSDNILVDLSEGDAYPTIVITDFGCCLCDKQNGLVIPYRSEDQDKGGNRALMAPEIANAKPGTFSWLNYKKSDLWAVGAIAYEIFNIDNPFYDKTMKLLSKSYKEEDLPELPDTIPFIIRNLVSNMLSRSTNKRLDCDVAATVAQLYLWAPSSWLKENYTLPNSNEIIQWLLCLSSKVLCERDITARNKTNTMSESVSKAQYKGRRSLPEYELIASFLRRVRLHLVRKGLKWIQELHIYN

PINK1, construct: aa126-end (from UniProt E0W1I1)
relative phosphorylation
Conditions | at +1 | at +2 | at +3 | at +4 | at -1 | at -2 | at -3 | at -4 | at -5
A fixed | 0.566 | 1.09 | 0.757 | 0.761 | 1.01 | 0.871 | 0.867 | 0.921 | 1.04
D fixed | 0.454 | 0.704 | 0.585 | 0.547 | 0.982 | 0.416 | 1.11 | 1.49 | 1.67
E fixed | 0.292 | 0.655 | 0.509 | 0.54 | 1.22 | 0.781 | 0.81 | 1.81 | 1.48
F fixed | 0.496 | 1.06 | 1.11 | 0.954 | 0.612 | 1.25 | 1.43 | 1.01 | 1.21
G fixed | 1.94 | 0.875 | 0.873 | 1.02 | 0.812 | 0.416 | 0.579 | 0.946 | 0.806
H fixed | 0.954 | 1.11 | 1.15 | 1.04 | 0.945 | 0.84 | 0.964 | 1.25 | 1.09
I fixed | 0.55 | 0.712 | 0.657 | 0.789 | 0.604 | 1.55 | 0.774 | 0.696 | 0.863
K fixed | 1.59 | 1 | 1.41 | 1.4 | 0.952 | 0.828 | 0.387 | 0.596 | 0.754
L fixed | 0.517 | 0.76 | 0.676 | 0.802 | 1.14 | 0.907 | 2.14 | 0.739 | 0.889
M fixed | 0.626 | 0.982 | 0.832 | 0.902 | 1.23 | 2.75 | 1.57 | 0.804 | 0.923
N fixed | 2.33 | 1.02 | 1.17 | 0.858 | 1.52 | 0.589 | 0.694 | 1.18 | 0.888
P fixed | 2.36 | 1.41 | 1.06 | 1.08 | 0.419 | 0.316 | 0.429 | 0.63 | 0.878
Q fixed | 0.786 | 1 | 0.957 | 0.983 | 1.72 | 1.06 | 0.609 | 0.831 | 0.733
R fixed | 2.05 | 1.57 | 2.21 | 2.15 | 1.58 | 1.02 | 0.815 | 0.676 | 0.75
V fixed | 0.474 | 0.805 | 0.737 | 0.692 | 0.716 | 0.838 | 0.441 | 0.595 | 0.806
W fixed | 0.455 | 1.03 | 1.14 | 1.47 | 0.772 | 1.55 | 1.74 | 1.48 | 1.17
Y fixed | 0.548 | 1.2 | 1.17 | 1.01 | 0.775 | 1.03 | 1.65 | 1.35 | 1.04
pThr fixed | 0.442 | 0.775 | 0.7 | 0.556 | 0.306 | 0.5 | 0.537 | 1.01 | 1.67
pTyr fixed | 0.458 | 1.66 | 0.834 | 0.71 | 1.09 | 1.06 | 3.15 | 1.66 | 1.26
